Laboratory results reported in US8940871 (University of California, dated 2015).
One block for each molecule: values may come before it.

Experiments:
[1] = target: PSCA on cells (PSCA-transfected B-cell line, LNCaP prostate cancer cells, SKW-PSCA+ cells) (human) (UniProt O43653); assay: immunoreactivity of radioiodinated diabody
[2] = target: PSCA (form used in Biacore not stated) (UniProt O43653); assay: Biacore, apparent affinity
[3] = target: T1, PSCA (form used in Biacore not stated) (UniProt O43653 12-86, limits assumed); assay: method not stated; humanized antibody compared with murine 1G8
T1 construct: The antigen preparation for the Biacore measurements and for the 4-fold statement is not described; also called prostate stem cell antigen
T1 sequence (looked up): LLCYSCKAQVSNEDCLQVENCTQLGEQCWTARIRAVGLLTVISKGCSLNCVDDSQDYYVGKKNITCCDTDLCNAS

purified PSCA-Fc = target: T2, purified PSCA-Fc (UniProt O43653 12-86); assay: competition ELISA, wells coated with PSCA-Fc
T2 construct: The construct is described only by a literature citation; not shown: Fc part not described
T2 sequence (looked up): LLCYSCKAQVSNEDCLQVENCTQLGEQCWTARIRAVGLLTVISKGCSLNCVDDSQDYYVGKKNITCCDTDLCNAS
Procedure: To examine the structural characteristics of the 2B3 minibody, SDS-PAGE was conducted under reducing and non-reducing conditions. The minibody migrated with a MW of ~47 kDa under reducing conditions and ~95 kDa under non-reducing (FIG. 2). […] The minibody's apparent affinity with respect to its intact antibody counterpart and the original mouse monoclonal antibody (1G8), was determined by competition ELISA.
PSCA relative binding affinity for the minibodies was determined by competition ELISA in which microtiter plate wells were coated with purified PSCA-Fc (Z Gu, T. Olafsen et al. 2006).

[4] = target: T1, PSCA (form used in Biacore not stated); assay: Biacore, apparent affinity; parental diabody, not affinity matured

immunoreactivity [1]: 22%
Kd [2]: 1.89 nM
Molecule: affinity matured 2B3 anti-PSCA diabody (scFv dimer, eight amino acid linker)

fold reduction in affinity (against murine 1G8) [3]: 4 fold
B1: humanized 2B3 anti-PSCA antibody (intact) (antibody, V domains shown)
VH: EVQLVESGGGLVQPGGSLRLSCAASGFNIKDYYIHWVRQAPGKGLEWVAWIDPENGDTEFVPKFQGRATISADTSKNTAYLQMNSLRAEDTAVYYCKTGGFWGQGTLVTVSS
VL: DIQLTQSPSSLSASVGDRVTITCSASSSVRFIHWYQQKPGKAPKRLIYDTSKLASGVPSRFSGSGSGTDFTLTISSLQPEDFATYYCQQWSSSPFTFGQGTKVEIK
notes: Intact humanized antibody; also called intact 2B3 antibody; humanized 2B3 antibody

fold lower affinity than the intact 2B3 antibody (purified PSCA-Fc): ~2 fold
fold lower relative affinity than the murine antibody (1G8) (purified PSCA-Fc): 9.2 fold
B2: humanized anti-PSCA minibody (2B3 scFv-CH3 dimer) (other)
chain: DIQLTQSPSSLSASVGDRVTITCSASSSVRFIHWYQQKPGKAPKRLIYDTSKLASGVPSRFSGSGSGTDFTLTISSLQPEDFATYYCQQWSSSPFTFGQGTKVEIKGSTSGGGSGGGSGGGGSSEVQLVESGGGLVQPGGSLRLSCAASGFNIKDYYIHWVRQAPGKGLEWVAWIDPENGDTEFVPKFQGRATISADTSKNTAYLQMNSLRAEDTAVYYCKTGGFWGQGTLVTVSSEPKSCDKTHTCPPCGGGSSGGGSGGQPREPQVYTLPPSRDELTKNQVSLTCLVKGFYPSDIAVEWESNGQPENNYKTTPPVLDSDGSFFLYSKLTVDKSRWQQGNVFSCSVMHEALHNHYTQKSLSLSPGK
notes: Covalent dimer of about 95 kDa; also called 2B3 minibody; parental minibody

Kd [4]: 5.41 nM
B3: parental 2B3 anti-PSCA diabody (scFv dimer, eight amino acid linker) (scFv)
scFv: DIQLTQSPSSLSASVGDRVTITCSASSSVRFIHWYQQKPGKAPKRLIYDTSKLASGVPSRFSGSGSGTDFTLTISSLQPEDFATYYCQQWSSSPFTFGQGTKVEIKGGGSGGGSEVQLVESGGGLVQPGGSLRLSCAASGFNIKDYYIHWVRQAPGKGLEWVAWIDPENGDTEFVPKFQGRATISADTSKNTAYLQMNSLRAEDTAVYYCKTGGFWGQGTLVTVSS
notes: also called parental diabody; 2B3 diabody
